Laboratory results taken from article PMC6200392.

Legend:
[1] = biological target: PRC1 (unlabeled, full-length) (human) (UniProt O43663)
[2] = biological target: PRC1 N-terminus (Homo sapiens) (UniProt O43663); details: cited from earlier work

Substance	relative sliding of PRC1-crosslinked antiparallel microtubules, average phase-1 sliding velocity; 0.2 and 1 nM PRC1 at 6 nM Kif4A-GFP [1] [×10⁻⁶ cm/s]	Kd [2] [nM]
Kif4A-GFP (from UniProt O95239 1-1232) (natural protein)	4.6	–
Kif4A C-terminus (from UniProt O95239)	–	300
